{"source": "paper PMC9923440", "target": "SARS-CoV-2 spike protein ectodomain mutant S12AAA (L1145A-F1148A-L1152A) (SARS-CoV-2), P0DTC2", "assay": "pull-down", "details": "remark: other sources report otherwise", "data": [{"binder": "resistance to inhibitor of cholinesterase-3 (RIC3), Q7Z5B4 29-369 (natural protein) SRGKRQEPPPTPEGKLGRFPPMMHHHQAPSDGQTPGARFQRSHLAEAFAKAKGSGGGAGGGGSGRGLMGQIIPIYGFGIFLYILYILFKLSKGKTTAEDGKCYTAMPGNTHRKITSFELAQLQEKLKETEAAMEKLINRVGPNGESRAQTVTSDQEKRLLHQLREITRVMKEGKFIDRFSPEKEAEEAPYMEDWEGYPEETYPIYDLSDCIKRRQETILVDYPDPKELSAEEIAERMGMIEEEESDHLGWESLPTDPRAQEDNSVTSCDPKPETCSCCFHEDEDPAVLAENAGFSADSYPEQEETTKEEWSQDFKDEGLGISTDKAYTGSMLRKRNPQGLE", "values": [{"measurement": "decrease in RIC3 binding vs S12", "value": 67, "unit": "%"}]}]}
